In the supplement of paper PMC12783771:
± gives the standard deviation of the averaged measurements.

B1: library; numbered along this chain (parent)
chain: MNIQIGELAKRTACPVVTIRFYEQEGLLPPPGRSRGNFRLYGEEHVERLQFIRHCRSLDMPLSDVRTLLSYRKRPDQDCGEVNMLLDEHIRQVESRIGALLELKHHLVELREACSGARPAQSCGILQGLSDCVCDTRGTTAHPSD

Assays:
[1] = variants of: B1; test: sfGFP reporter fluorescence (15 h) (µM FITC); higher = higher leak; details: library round: Round 0; ligand: none
Experimental: (§1)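 Cell-free (BL21 Star DE3 extract, PANOx-SP) biosensing: 1 µL Echo-assembled reactions with linear PbrR variant templates (5 nM) and pPbrR-sfGFP reporter, with 1 µM Pb (lead chloride), 30 µM Zn (zinc acetate) or no ligand; endpoint sfGFP fluorescence after 15 h at 30 °C, calibrated as µM FITC. Round 0 library (alanine scan, site saturation, combinatorial) of PbrR from Cupriavidus metallidurans; 2 biological replicates.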

[2] = variants of: B1; test: sfGFP reporter fluorescence (15 h) (µM FITC); higher = stronger transcriptional activation; details: library round: Round 0
Experimental: as §1

[3] = variants of: B1; test: sfGFP reporter fluorescence (15 h) (µM FITC); higher = higher leak; details: library round: Round 1; ligand: none
Summary of the method: (§2)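 Values are endpoint sfGFP fluorescence given as µM FITC equivalents. Fluorescence was read at 485/528 nm on a Synergy Neo2, and FITC standard curves were prepared in 50 mM sodium borate pH 8.5. Reactions of 1 μL combined BL21 Star (DE3) PANOx-SP extract, pPbrR-sfGFP reporter, 30 μg/mL GamS and linear PbrR templates (PCR-made, Echo-normalized to 5 nM), with 1 µM lead chloride, 30 µM zinc acetate or no metal, for 15 hr at 30 °C.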

[4] = variants of: B1; test: sfGFP reporter fluorescence (15 h) (µM FITC); higher = stronger transcriptional activation; details: library round: Round 1
Summary of the method: as §2

Variant	sfGFP reporter fluorescence [1]	sfGFP reporter fluorescence ([2]; ligand: 1 µM Pb)	sfGFP reporter fluorescence ([2]; ligand: 30 µM Zn)	sfGFP reporter fluorescence [3]	sfGFP reporter fluorescence ([4]; ligand: 1 µM Pb)	sfGFP reporter fluorescence ([4]; ligand: 30 µM Zn)
G98A	0.0614 ± 0.00078	0.0762 ± 0.0021	0.793 ± 0.06			
M60L P61N D64K K104V	0.366 ± 0.0044	1.11 ± 0.035	3.03 ± 0.15			
M60L P61N D64K K104T				0.137 ± 0.0056	0.446 ± 0.019	1.18 ± 0.11
N83R L107H				0.0594 ± 0.00064	0.0632 ± 0.0012	0.0662 ± 0.0035
R96Q				0.0632 ± 0.0037	0.0982 ± 0.0089	0.455 ± 0.0056
R111A D131N				0.066 ± 0.0013	0.117 ± 0.018	0.829 ± 0.15
I3M D131C				0.066 ± 0.0019	0.102 ± 0.016	0.446 ± 0.039
D87A	0.0596 ± 0.0049	0.0652 ± 0.0015	0.393 ± 0.011			
D87S				0.0624 ± 0.0015	0.0699 ± 0.0015	0.162 ± 0.017
P61N D64T D131C				0.139 ± 0.011	0.315 ± 0.076	1.1 ± 0.12
P15A P61N				0.0831 ± 0.0029	0.12 ± 0.017	0.573 ± 0.031
D64I R111L				0.0903 ± 0.0015	0.254 ± 0.032	1.39 ± 0.12
M84A I97G				0.05986 ± 0.00042	0.0617 ± 0.0011	0.218 ± 0.017
N83S D135A				0.0628 ± 0.0014	0.0731 ± 0.0064	0.219 ± 0.026
N83S D135P				0.0623 ± 0.00073	0.0811 ± 0.0058	0.145 ± 0.004
L85K	0.0585 ± 0.0029	0.0566 ± 0.00078	0.0645 ± 0.001			
L85Y	0.0592 ± 0.0039	0.0603 ± 0.00078	0.253 ± 0.0096			
L85T	0.0601 ± 0.0015	0.057 ± 0.0013	0.1118 ± 0.00052			
N83T D135P				0.0602 ± 0.0037	0.0771 ± 0.00092	0.106 ± 0.0033
N83T D135F				0.0665 ± 0.00076	0.0911 ± 0.014	0.435 ± 0.062
D64T E112I D135A				0.08637 ± 0.00056	0.197 ± 0.029	1.56 ± 0.079
Q127A D135P				0.0621 ± 0.0012	0.0781 ± 0.0053	0.244 ± 0.021

Variant	sfGFP reporter fluorescence [1]	sfGFP reporter fluorescence ([2]; ligand: 1 µM Pb)	sfGFP reporter fluorescence ([2]; ligand: 30 µM Zn)	sfGFP reporter fluorescence [3]	sfGFP reporter fluorescence ([4]; ligand: 1 µM Pb)	sfGFP reporter fluorescence ([4]; ligand: 30 µM Zn)
M60L P61N L107C	1.39 ± 0.39	2.42 ± 0.21	5.07 ± 0.26			
K104V G128M D135A				0.103 ± 0.0031	0.291 ± 0.048	1.8 ± 0.11
E112M	0.06212 ± 0.00026	0.0938 ± 0.0093	0.9465 ± 0.007			
D64K I97A				0.2087 ± 0.002	0.581 ± 0.17	2.21 ± 0.066
D64K I97S				0.0966 ± 0.0019	0.216 ± 0.016	1.09 ± 0.074
C134M	0.0693 ± 0.001	0.09162 ± 0.00052	1.28 ± 0.065			
D64K D131A				0.131 ± 0.0097	0.37 ± 0.032	1.76 ± 0.11
G36K P61N				0.0721 ± 0.0043	0.112 ± 0.0096	0.588 ± 0.075
P61N G128M	0.481 ± 0.039	1.59 ± 0.34	4.72 ± 0.4			
M60C	0.06029 ± 0.00026	0.06304 ± 0.00052	0.06615 ± 0.00026			
M60D	0.0616 ± 0.001	0.0619 ± 0.0015	0.063 ± 0.0015			
N83T L85R				0.061 ± 0.0026	0.0607 ± 0.0035	0.0601 ± 0.0029
M60L P61L				0.0689 ± 0.00037	0.081 ± 0.0019	0.156 ± 0.015
D64K V108E				0.0746 ± 0.0013	0.165 ± 0.015	1.42 ± 0.1
N83T C134L				0.0568 ± 0.0011	0.0739 ± 0.003	0.159 ± 0.025
D64T R111A				0.173 ± 0.0098	0.246 ± 0.078	2.17 ± 0.2
L107I C114R				0.059 ± 0.0019	0.0512 ± 0.0044	0.0514 ± 0.00092
N83T D131H				0.0632 ± 0.0011	0.0836 ± 0.0011	0.14 ± 0.012
I90F	0.0566 ± 0.0054	0.063 ± 0.0026	0.339 ± 0.033			
L58H	0.05901 ± 0.00052	0.0594 ± 0.0021	0.0656 ± 0.0036			
L58I	0.05443 ± 0.00026	0.0546 ± 0.001	0.05864 ± 0.00052			
L107C G128I D135S				2.64 ± 0.069	3.9 ± 0.36	4.376 ± 0.041
